Patent US20200190192A1 (SUTRO BIOPHARMA, published 2020)
Like-named read-outs stand apart in the source and are kept apart here.

Key:
[1] = biological target: T1, human Tim-3 expressed on the cell surface (human, UniProt Q8TDQ0 22-301); test: cell binding, CHO-human Tim-3 cells
T1 construct: also called hTim-3; Human Tim-3 (CHO)

[2] = biological target: T2, human Tim-3 (Biacore analyte; TIM-3-Fc or TIM-3-HIS, not said which) (human, UniProt Q8TDQ0 22-202); test: kinetics; method and analyte not given
T2 construct: also called TIM-3 antigen; not shown: Fc or HIS tag

[3] = biological target: T3, cynomolgus Tim-3 expressed on CHO cells (cynomolgus monkey); test: cell binding, CHO-cyno Tim-3 cells
T3 construct: also called cTim-3; Cyno Tim-3 (CHO)
T3 chain: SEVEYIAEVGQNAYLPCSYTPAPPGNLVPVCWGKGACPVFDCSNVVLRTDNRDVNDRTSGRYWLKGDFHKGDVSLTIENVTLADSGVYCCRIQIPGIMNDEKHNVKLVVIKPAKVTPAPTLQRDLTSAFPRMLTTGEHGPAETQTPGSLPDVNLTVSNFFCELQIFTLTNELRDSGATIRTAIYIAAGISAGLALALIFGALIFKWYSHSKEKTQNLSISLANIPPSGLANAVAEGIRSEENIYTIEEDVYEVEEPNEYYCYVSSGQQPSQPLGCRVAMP

[4] = biological target: T4, recombinant cynomolgus Tim-3-Fc (R&D Systems, 7914-TM) (cynomolgus monkey); test: ELISA, coated cyno Tim-3-Fc
T4 construct: Bought protein; also called cyTim-3-Fc; Cyno Tim-3-Fc; not shown: Fc of the bought fusion protein
T4 chain: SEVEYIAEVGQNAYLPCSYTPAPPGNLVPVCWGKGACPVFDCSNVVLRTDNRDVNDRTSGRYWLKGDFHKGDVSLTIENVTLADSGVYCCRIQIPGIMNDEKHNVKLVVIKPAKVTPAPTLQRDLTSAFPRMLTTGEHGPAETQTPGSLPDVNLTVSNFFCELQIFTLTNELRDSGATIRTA

[5] = biological target: T5, recombinant human Tim-3-Fc (R&D Systems, 2365-TM) (human, UniProt Q8TDQ0 22-202, biotinylated in the Galectin-9 competition ELISA (sites not given)); test: ELISA, coated human Tim-3-Fc
T5 construct: Bought protein; also called huTim-3-Fc; biotinylated Tim-3-Fc; not shown: Fc of the bought fusion protein

[6] = biological target: T1, human Tim-3 expressed on the cell …; test: cell binding (flow cytometry; cells not given)
[7] = biological target: T5, recombinant human Tim-3-Fc (R&D …); test: competition ELISA, biotin-Tim-3-Fc vs coated Galectin-9
[8] = biological target: T1, human Tim-3 expressed on the cell …; test: flow cytometry, CHO-human Tim-3 cells
[9] = biological target: T2, human Tim-3 (Biacore analyte; TIM-3-Fc …); test: SPR Biacore, human Tim-3 (Fc or HIS not said)
[10] = biological target: T5, recombinant human Tim-3-Fc (R&D …); test: SPR Biacore, human Tim-3-Fc
[11] = biological target: T3, cynomolgus Tim-3 expressed on CHO cells; test: flow cytometry, CHO-cyno Tim-3 cells
[12] = biological target: T1, human Tim-3 expressed on the cell …; test: flow cytometry, CHO-human Tim-3 cells; remark: listed apart in the source
[13] = biological target: T5, recombinant human Tim-3-Fc (R&D …); test: AlphaLISA bridging: Tim-3-Fc acceptor beads + PD-1 donor beads (signal needs both)
[14] = biological target: T6, human PD-1 expressed on CHO cells (human, UniProt Q15116 25-288); test: flow cytometry, CHO-human PD-1 cells
T6 construct: also called hPD-1; CHO-hPD-1

[15] = biological target: T7, biotinylated recombinant human PD-1 (AcroBiosystems) (human, UniProt Q15116 25-167, limits assumed, biotinylated (sites not given)); test: competition, flow cytometry: biotin-PD-1 binding to CHO-human PD-L1 cells
T7 construct: Bought protein; also called biotinylated PD-1

[16] = biological target: T3, cynomolgus Tim-3 expressed on CHO cells; test: flow cytometry, CHO-cyno Tim-3 cells
[17] = biological target: T5, recombinant human Tim-3-Fc (R&D …); test: competition ELISA, biotin-Tim-3-Fc vs coated Galectin-9; remark: listed apart in the source

B1: Mouse hybridoma clone 22E11 (antibody, V domains shown)
VH: QVQLKESGPDLVAPSQSLSITCTVSGFSLTSYGVHWVRQPPGKGLEWLVVIWSDGSTTYNSALKSRLTISKDNSKSQVFLKMNSLQTDDTAMYYCARQGGYRYDDAMDYWGQGTSVAVSS
VL: DIVLTQSPASLAVSLGQRATISCKASQSVDYDGNSYVNWYQQKPGQPPKLLIYAASNLESGIPARFSGSGSGTDFTLNIHPVEEEDAATYYCQQSNEDPYTFGGGTKLEIK
notes: Mouse antibody; also called m22E11; 250.180.2.22E11
Q: Does B1 bind [1]?
A: binds

Q: And the Kd [2]?
A: 1.5 nM

Q: And the koff [2]?
A: 0.000334 s⁻¹

Q: And the kon [2]?
A: 223000 M⁻¹ s⁻¹

Q: Does B1 bind [3]?
A: binds

B2: Mouse hybridoma clone 2D5 (antibody, V domains shown)
VH: EVQLQQSGPELVKPGTSMKISCRASGYPFIGYTMNWVKQSHGGNLEWIGLINPYNGITTYNQKFKGRATLSVDTSSTIAYMELLSLTSDDSAEYYCARSFFYGSSNDWLVYWGQGTLVTVSA
VL: DVLMTQTPLSLPVSLGDQASISCRSSQSIVHTNGNTYLEWYLQKPGQSPKLLIYKVSNRFSGVPDRFSGSGSGTDFTLKISRVEAEDLGVYYCFQGSHVPWTFGGGTELEIK
notes: Mouse antibody; also called 421.51.2.2D5.5E9
Q: Does B2 bind [1]?
A: binds

Q: And the Kd [2]?
A: 0.431 nM

Q: What about the koff [2] of the same binder?
A: 0.000166 s⁻¹

Q: What about the kon [2] of the same binder?
A: 386000 M⁻¹ s⁻¹

Q: Does B2 bind [3]?
A: no binding

B3: SRP1497-A05 (antibody, V domains shown)
VH: EVQLVESGGGLVQPGGSLRLSCAASGFNISNYAIHWVRQAPGKGLEWVADITPDGGYTDYADSVKDRFTISADTSKNTAYLQMNSLRAEDTAVYYCARGYVYRMWDSFDYWGQGTLVTVSS
VL: not shown
notes: IgG with trastuzumab LC; HIS- and FLAG-tagged
Q: Which EC50 [4] does the source give for B3 here?
A: 6.19 nM

Q: And the EC50 [5]?
A: 0.24 nM

Q: What about the Kd [6] of the same binder?
A: 5.6 nM

Q: What about the IC50 [7] of the same binder?
A: 1.1 nM

Q: What about the Kd [8] of the same binder?
A: 0.5 nM

Q: And the Kd [9]?
A: 64.7 nM

Q: And the koff [9]?
A: 0.0219 s⁻¹

Q: What about the kon [9] of the same binder?
A: 338000 M⁻¹ s⁻¹

Q: And the Kd [10]?
A: 2.27 nM

Q: What about the koff [10] of the same binder?
A: 0.000458 s⁻¹

Q: What about the kon [10] of the same binder?
A: 202000 M⁻¹ s⁻¹

B4: 1353-G10-scFv × 1649-A01-Fab (bispecific antibody, V domains shown)
VH 1: EVQLVQSGAEVKKPGASVKVSCKASGYRFPHYGISWVRQAPGQGLEWMGWISAYNGNTNYAQKLQGRVTMTTDTSTNTAYMELRSLRSDDTAVYYCARDVDYGTGSGYWGQGTLVTVSS
VL 1: SYELTQPPSVSVSPGQTARITCSGDALPKQYAYWYQQKPGQAPVMVIYKDTERPSGIPERFSGSSSGTKVTLTISGVQAEDEADYYCQSADNSITYRVFGGGTKVTVL
VH 2: EVQLVESGGGLVQPGGSLRLSCAASGFNISRYYIHWVRQAPGKGLEWVAGITPVRGYTEYADSVKDRFTISADTSKNTAYLQMNSLRAEDTAVYYCARGYVYRMWDSYDYWGQGTLVTVSS
VL 2: not shown
notes: scFv-Fc × Fab bi-specific; also called Sample C; protein sample C
Q: B4 was tested. Which Kd [11] did it give?
A: 29 nM

Q: And the Kd [12]?
A: 4.4 nM

Q: And the EC50 [13]?
A: 0.05 nM

Q: And the Kd [14]?
A: 1.3 nM

Q: And the IC50 [15]?
A: 11 nM

B5: SRP1649-F06 (antibody, V domains shown)
VH: EVQLVESGGGLVQPGGSLRLSCAASGFNIGNYAIHWVRQAPGKGLEWVADITPGQGYTEYADSVKDRFTISADTSKNTAYLQMNSLRAEDTAVYYCARGYVYRMWDSYDYWGQGTLVTVSS
VL: not shown
notes: as for B3
Q: With B5 as the binder, how does the Kd [8] read?
A: 0.2 nM

Q: And the Kd [9]?
A: 17.3 nM

Q: What about the koff [9] of the same binder?
A: 0.00393 s⁻¹

Q: And the kon [9]?
A: 227000 M⁻¹ s⁻¹

Q: What about the Kd [16] of the same binder?
A: 5.6 nM

Q: What about the IC50 [17] of the same binder?
A: 0.63 nM

B6: SRP1649-A01 (antibody, V domains shown)
VH: EVQLVESGGGLVQPGGSLRLSCAASGFNISRYYIHWVRQAPGKGLEWVAGITPVRGYTEYADSVKDRFTISADTSKNTAYLQMNSLRAEDTAVYYCARGYVYRMWDSYDYWGQGTLVTVSS
VL: not shown
notes: as for B3
Q: Which results are given for B6?
A: Kd [8]: 0.4 nM; Kd [9]: 17.4 nM; koff [9]: 0.00117 s⁻¹; kon [9]: 67100 M⁻¹ s⁻¹; Kd [16]: 0.5 nM; IC50 [17]: 0.26 nM
